In PMC2734569, “Functional mapping of the fission yeast DNA polymerase δ B-subunit Cdc1 by site-directed and random pentapeptide insertion mutagenesis” (BMC Molecular Biology, 2009):

Columns and labels:
Assay in all cases: two-hybrid; LexA-Cdc1 bait (pBTM116 or pBTM116BN) with Gal4-Pol3 prey and co-expressed c-myc-tagged Cdc27 (pAA-Cdc27) in S. cerevisiae CTY10-5d; ONPG liquid culture beta-galactosidase assay, mean of triplicates, as percent of wild-type Cdc1
Conditions in all cases: partners not purified
Cdc1-J15 = target: T1, Cdc1-J15 (Schizosaccharomyces pombe, UniProt P87324 1-462, Gln-GlyValProLeuGln-Val)
T1 construct: Cdc1, S. pombe, with a pentapeptide inserted after residue 203; source: yeast two-hybrid fusion, in S. cerevisiae CTY10-5d
T1 sequence (looked up): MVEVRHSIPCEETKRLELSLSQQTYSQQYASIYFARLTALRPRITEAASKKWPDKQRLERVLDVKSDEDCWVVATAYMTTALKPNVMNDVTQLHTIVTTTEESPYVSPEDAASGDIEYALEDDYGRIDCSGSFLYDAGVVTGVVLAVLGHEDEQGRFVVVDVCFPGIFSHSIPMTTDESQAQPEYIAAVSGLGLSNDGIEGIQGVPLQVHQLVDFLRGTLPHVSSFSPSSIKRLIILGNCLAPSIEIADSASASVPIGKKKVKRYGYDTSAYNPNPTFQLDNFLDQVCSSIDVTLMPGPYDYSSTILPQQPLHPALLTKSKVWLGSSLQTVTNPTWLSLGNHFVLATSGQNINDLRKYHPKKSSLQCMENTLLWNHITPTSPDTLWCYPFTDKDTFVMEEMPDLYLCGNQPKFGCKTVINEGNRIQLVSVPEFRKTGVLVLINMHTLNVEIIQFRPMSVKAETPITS

Cdc1-J2 = target: T2, Cdc1-J2 (Schizosaccharomyces pombe, UniProt P87324 1-462, Tyr-ArgGlyThrProTyr-Ser)
T2 construct: Cdc1, S. pombe, with a pentapeptide inserted after residue 25; also called J18; J20; source: yeast two-hybrid fusion, in S. cerevisiae CTY10-5d
T2 sequence (looked up): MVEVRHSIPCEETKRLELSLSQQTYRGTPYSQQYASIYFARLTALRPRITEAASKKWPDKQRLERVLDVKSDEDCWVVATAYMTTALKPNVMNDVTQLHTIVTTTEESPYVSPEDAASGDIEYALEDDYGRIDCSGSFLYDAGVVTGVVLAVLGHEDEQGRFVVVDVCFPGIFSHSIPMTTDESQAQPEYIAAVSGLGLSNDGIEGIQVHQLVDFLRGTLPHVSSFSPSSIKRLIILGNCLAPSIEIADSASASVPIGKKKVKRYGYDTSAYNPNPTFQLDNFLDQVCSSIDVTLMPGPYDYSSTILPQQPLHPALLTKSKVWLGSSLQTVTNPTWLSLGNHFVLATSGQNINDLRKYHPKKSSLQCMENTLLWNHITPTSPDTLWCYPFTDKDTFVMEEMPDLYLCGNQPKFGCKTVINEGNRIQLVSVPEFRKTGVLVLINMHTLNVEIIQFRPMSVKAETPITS

Cdc1-J10 = target: T3, Cdc1-J10 (Schizosaccharomyces pombe, UniProt P87324 1-462, Tyr-ArgGlyThrProTyr-Met)
T3 construct: Cdc1, S. pombe, with a pentapeptide inserted after residue 77; also called J11; E6; source: yeast two-hybrid fusion, in S. cerevisiae CTY10-5d
T3 sequence (looked up): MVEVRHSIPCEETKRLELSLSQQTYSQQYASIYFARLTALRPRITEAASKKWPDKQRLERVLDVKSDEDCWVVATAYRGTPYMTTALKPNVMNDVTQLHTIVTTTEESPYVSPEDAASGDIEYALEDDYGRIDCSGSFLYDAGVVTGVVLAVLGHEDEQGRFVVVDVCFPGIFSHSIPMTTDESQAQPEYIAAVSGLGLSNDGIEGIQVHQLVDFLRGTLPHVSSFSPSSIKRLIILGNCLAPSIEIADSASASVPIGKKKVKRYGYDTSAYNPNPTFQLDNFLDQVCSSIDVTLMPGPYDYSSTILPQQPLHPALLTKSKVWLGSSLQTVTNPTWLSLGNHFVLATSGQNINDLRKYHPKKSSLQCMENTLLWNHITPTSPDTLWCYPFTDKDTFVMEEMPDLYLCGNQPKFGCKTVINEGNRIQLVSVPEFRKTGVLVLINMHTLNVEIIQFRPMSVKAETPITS

Cdc1-E9 = target: T4, Cdc1-E9 (Schizosaccharomyces pombe, UniProt P87324 1-462, Tyr-GlyGlyTyrProTyr-Gly)
T4 construct: Cdc1, S. pombe, with a pentapeptide inserted after residue 124; source: yeast two-hybrid fusion, in S. cerevisiae CTY10-5d
T4 sequence (looked up): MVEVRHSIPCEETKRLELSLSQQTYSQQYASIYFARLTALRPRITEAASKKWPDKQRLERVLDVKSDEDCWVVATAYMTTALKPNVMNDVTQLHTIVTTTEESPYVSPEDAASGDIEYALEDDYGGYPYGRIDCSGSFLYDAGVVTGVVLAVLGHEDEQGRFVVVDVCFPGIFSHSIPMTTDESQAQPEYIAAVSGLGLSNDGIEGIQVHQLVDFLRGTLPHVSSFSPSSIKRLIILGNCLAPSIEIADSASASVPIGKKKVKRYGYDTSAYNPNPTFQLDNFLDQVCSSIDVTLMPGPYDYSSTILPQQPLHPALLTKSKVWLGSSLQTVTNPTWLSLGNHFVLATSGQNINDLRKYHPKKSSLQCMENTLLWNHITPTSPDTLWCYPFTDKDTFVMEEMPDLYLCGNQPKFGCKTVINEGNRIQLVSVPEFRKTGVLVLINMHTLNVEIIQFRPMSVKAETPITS

two-hybrid beta-galactosidase activity, % of wild-type Cdc1 (Cdc1-J15): 1%
two-hybrid beta-galactosidase activity, % of wild-type Cdc1 (Cdc1-J2): 46%
two-hybrid beta-galactosidase activity, % of wild-type Cdc1 (Cdc1-J10): < 1%
two-hybrid beta-galactosidase activity, % of wild-type Cdc1 (Cdc1-E9): 24%
B1: Pol3 (fission yeast DNA polymerase delta catalytic subunit) (natural protein, Schizosaccharomyces pombe, UniProt P30316 1-1086, looked up)
chain: MTDRSSNEGVVLNKENYPFPRRNGSIHGEITDVKRRRLSERNGYGDKKGSSSKEKTSSFEDELAEYASQLDQDEIKSSKDQQWQRPALPAINPEKDDIYFQQIDSEEFTEGSVPSIRLFGVTDNGNSILVHVVGFLPYFYVKAPVGFRPEMLERFTQDLDATCNGGVIDHCIIEMKENLYGFQGNEKSPFIKIFTTNPRILSRARNVFERGEFNFEELFPVGVGVTTFESNTQYLLRFMIDCDVVGMNWIHLPASKYQFRYQNRVSNCQIEAWINYKDLISLPAEGQWSKMAPLRIMSFDIECAGRKGVFPDPSIDPVIQIASIVTQYGDSTPFVRNVFCVDTCSQIVGTQVYEFQNQAEMLSSWSKFVRDVDPDVLIGYNICNFDIPYLLDRAKSLRIHNFPLLGRIHNFFSVAKETTFSSKAYGTRESKTTSIPGRLQLDMLQVMQRDFKLRSYSLNAVCSQFLGEQKEDVHYSIITDLQNGTADSRRRLAIYCLKDAYLPQRLMDKLMCFVNYTEMARVTGVPFNFLLARGQQIKVISQLFRKALQHDLVVPNIRVNGTDEQYEGATVIEPIKGYYDTPIATLDFSSLYPSIMQAHNLCYTTLLDSNTAELLKLKQDVDYSVTPNGDYFVKPHVRKGLLPIILADLLNARKKAKADLKKETDPFKKAVLDGRQLALKVSANSVYGFTGATNGRLPCLAISSSVTSYGRQMIEKTKDVVEKRYRIENGYSHDAVVIYGDTDSVMVKFGVKTLPEAMKLGEEAANYVSDQFPNPIKLEFEKVYFPYLLISKKRYAGLFWTRTDTYDKMDSKGIETVRRDNCPLVSYVIDTALRKMLIDQDVEGAQLFTKKVISDLLQNKIDMSQLVITKALSKTDYAAKMAHVELAERMRKRDAGSAPAIGDRVAYVIIKGAQGDQFYMRSEDPIYVLENNIPIDAKYYLENQLSKPLLRIFEPILGEKASSLLHGDHTRTISMAAPSVGGIMKFAVKVETCLGCKAPIKKGKTALCENCLNRSAELYQRQVAQVNDLEVRFARLWTQCQRCQGSMHQDVICTSRDCPIFYMRIAEHKKLQQSVDLLKRFDEMSW
notes: DNA polymerase delta catalytic subunit Pol3, S. pombe; prey plasmid named pACT-Pol3 in the results and pGAD2F-Pol3 in the methods; also called Gal4-Pol3; pACT-Pol3; source: yeast two-hybrid fusion, in S. cerevisiae CTY10-5d
